Assays:
[1] = Instantaneous gelation time sweep of peptide sequences 1, 3 and 4; assay type: physicochemical; conditions: for final gel strength after 30 minute gelation time sweep: triggered with 100 mM CaCl2 solution (FIG. 12, 13)
Experimental: Similar to the methods used in U.S. 2013/0018004. Hydrogels were prepared with peptide 1, 3, and 4 alone, or mixture of peptide sequence 1 and 4 at 1:1 ratio. Hydrogels were triggered by calcium ions and BSA alone or co-trigger (calcium ions+BSA).

HeLa cells = test: HeLa cell viability (CCK-8) in 3D h9e hydrogel; assay type: cell-based; conditions: 3-day treatment, various concentrations of camptothecin, in h9e hydrogel
Experimental: Cell culture and drug efficacy/diffusion tests: HeLa cells were grown in the hydrogel in 3D. Aliquots of HeLa cells solution were added into […] hydrogel with DMEM containing 10% FBS with a final peptide concentration of 0, 0.25, 0.5 and 1 wt %. 100 μl of cell mixture solution (3×10^4 cells per well) was seeded into a 96-well culture plate (Becton Dickinson Labware, Franklin Lakes, N.J.) and placed in an incubator (Nuair, Playmouth, Minn.) in a humidified 5% CO2 atmosphere at 37° C. for about 30 min. After complete hydrogelation, 10 μl of DMEM containing 0, 50 uM, 100 uM, or 200 uM camptothecin was added on top of the hydrogel to obtain camptothecin concentrations of 0 μM, 3.125 μM, 6.25 μM, and 12.5 μM, respectively, upon total diffusion in the hydrogel. Then, 50 ul of DMEM was carefully added to the top of the hydrogel to prevent drying during long-term incubation. All measurements were made at least in triplicate, and the plates were incubated for 3 days. A CCK-8 assay was used to determine cell viability after each treatment. 10 μL of CCK solution was added to each well. After 4 h of incubation, the absorbance at 450 nm was collected on a microplate reader (mQuant, Bio-Tek) and corrected by subtracting the background signal from a wall containing only 160 ul DMEM containing 10% FBS. […]

[2] = Gelation test of ECM ligand built-in or blended hydrogels; assay type: physicochemical; conditions: 0.5% peptide solution triggered with 0.5% BSA solution, 37° C., 30 min
Experimental: In this Example, an ECM ligand RGD built-in peptide (i.e., FLIVI-GSII-GPGGDGPGGDGRGD (SEQ ID NO:69)) was formulated into a hydrogel at 0.5% peptide solution triggered with 0.5% BSA solution. Gelation test was performed at 37° C. for 30 min. Gel strength was about 500 Pa, similar as the regular h9e hydrogel (FIG. 18.). Peptide synthesis followed the same procedure described in Example V.
Rheology Measurements: The hydrogel samples were characterized for mechanical properties. Gelation was determined right after the peptide solution triggered using either metal ion (i.e., Ca++) or albumin proteins (i.e., BSA) using C-VOR 150 rheometer system at both room temperature and 37° C. following our previous procedure. The maximum gel strength after 24 hours was used as the gel strength. The hydrogel samples after 24 hours was used and loaded in the probe system, and examined at a single frequency (1 Hz) and steady shear strain (1%). For shear-thinning experiments, the samples were subjected to shear and then observe the strain of the storage (G′) and loss (G″) modulus as a function of time following our previous procedures.
Regular h9e peptide described in Example VI can be blended with ECM ligands and functional proteins. […]

## FLIVIGSIIPGGGDGPGGD (Derivative of spider flagelliform silk protein and a trans-membrane segment of subunit IV in the dihydropyridine sensitive human muscle L-type calcium channel) [Sequence 3]
[1]
  hydrogel formation: yielded a peptide hydrogel
  final gel strength after 30 minute gelation time sweep: 196 Pa

## FLIVIGSIIGPGVDPGGAD (Derivative of spider flagelliform silk protein and a trans-membrane segment of subunit IV in the dihydropyridine sensitive human muscle L-type calcium channel) [Sequence 4]
[1]
  hydrogel formation: yielded a peptide hydrogel
  final gel strength after 30 minute gelation time sweep: 496 Pa
[1]; triggered with BSA
  gel strength: about 150 Pa
[1]; triggered with calcium
  gel strength: about 550 Pa

## CC[C@@]1(O)C(=O)OCc2c1cc1n(c2=O)Cc2cc3ccccc3nc2-1 [Camptothecin, reference compound]
HeLa cells
  HeLa cell viability: dose-dependent decrease in cell viability

## FLIVI-GSII-GPGGDGPGGDGRGD (FLIVIGSIIGPGGDGPGGDGRGD; FLIVI-GSII N-terminal extension; Derivative of spider flagelliform silk protein and a trans-membrane segment of subunit IV in the dihydropyridine sensitive human muscle L-type calcium channel with built-in ECM ligand) [SEQ ID NO:69]
[2]
  Gel strength: about 500 Pa
